Measured values as given in publication PMC5127646 (2016).

B1: SmN peptide, residues 219-229 (GMRPPPPGIRG) [human] / RBM5 OCRE domain (residues 451-511), wild type [human] (parent complex)
chain 1: GMRPPPPGIRG
chain 2: GAMGTKYAVPDTSTYQYDESSGYYYDPTTGLYYDPNSQYYYNSLTQQYLYWDGEKETYVPAAES

Variants of: B1
Experiment: NMR titration (chemical shift perturbation score); 1:10 ratio of OCRE:peptide; read off a plot
With chain 1 P4A, chain 1 P6A the ratio to parent was ~0.27.
With chain 1 R10A the ratio to parent was ~0.67.
chain 1 R10E showed a ratio to parent of ~0.54.
Variant chain 1 R3E, chain 1 R10E has a ratio to parent of ~0.05.
chain 1 R3A, chain 1 R10A gave a ratio to parent of ~0.24.
chain 1 R3A gave a ratio to parent of ~0.51.
chain 1 R3E gave a ratio to parent of ~0.19.
